Experimental data published in patent US20180037644A1 (Pfizer, published 2018).
Where two headings read alike, the source gives them in different places.

T1: human IL-33 (mm2) (human, UniProt O95760 112-270)
T1 chain: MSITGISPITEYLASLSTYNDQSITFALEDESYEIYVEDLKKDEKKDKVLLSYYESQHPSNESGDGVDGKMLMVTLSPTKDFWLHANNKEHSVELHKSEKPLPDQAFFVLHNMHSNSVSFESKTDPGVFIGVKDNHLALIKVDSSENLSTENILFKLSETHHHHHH

T2: cynomolgus monkey IL-33 (cys mut) (cynomolgus monkey)
T2 chain: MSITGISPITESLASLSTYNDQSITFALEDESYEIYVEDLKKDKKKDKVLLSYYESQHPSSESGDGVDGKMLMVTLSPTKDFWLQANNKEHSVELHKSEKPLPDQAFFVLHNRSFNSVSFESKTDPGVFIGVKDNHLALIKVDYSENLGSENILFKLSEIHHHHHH

T3: native human IL-33 from human lung fibroblast (HFL-1) lysate (human, UniProt O95760 1-270, limits assumed)
T3 sequence (looked up): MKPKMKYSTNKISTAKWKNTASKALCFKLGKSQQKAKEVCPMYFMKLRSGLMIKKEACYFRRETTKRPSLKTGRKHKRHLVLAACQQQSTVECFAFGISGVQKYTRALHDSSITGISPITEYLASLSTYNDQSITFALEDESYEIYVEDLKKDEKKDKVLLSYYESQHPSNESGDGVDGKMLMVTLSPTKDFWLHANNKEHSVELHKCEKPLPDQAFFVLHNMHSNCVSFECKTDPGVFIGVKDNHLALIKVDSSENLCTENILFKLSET

T4: human IL-33 WT (R&D) (human, UniProt O95760 112-270)
T4 sequence: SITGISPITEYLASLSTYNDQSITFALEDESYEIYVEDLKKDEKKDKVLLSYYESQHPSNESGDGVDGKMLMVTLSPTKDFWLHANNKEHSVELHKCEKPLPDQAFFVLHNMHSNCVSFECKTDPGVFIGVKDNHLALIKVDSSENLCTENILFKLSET


Columns and labels:
Assay in all cases: cell-based or functional assay
human IL-33 (mm2) [1] = molecular target: T1, human IL-33 (mm2)
[2] = molecular target: T2, cynomolgus monkey IL-33 (cys mut)
human IL-33 (mm2) [3] = molecular target: T1, human IL-33 (mm2)
human IL-33 (mm2) [4] = molecular target: T1, human IL-33 (mm2)
[5] = molecular target: T2, cynomolgus monkey IL-33 (cys mut)
human IL-33 (mm2) [6] = molecular target: T1, human IL-33 (mm2)
[7] = molecular target: T2, cynomolgus monkey IL-33 (cys mut)
[8] = molecular target: T3, native human IL-33 from human lung …
human IL-33 (mm2) [9] = molecular target: T1, human IL-33 (mm2)
human IL-33 WT (R&D) = molecular target: T4, human IL-33 WT (R&D)

Binder | IC50, HEK293 ST2 NFkB (human IL-33 (mm2) [3]) [nM] | IC50, HEK293 ST2 NFkB (human IL-33 (mm2) [4]) [nM] | IC50, HEK293 ST2 NFkB (human IL-33 (mm2) [6]) [nM] | IC50, HEK293 ST2 NFkB [7] [nM] | % inhibition 0.1 nM Ab, HEK293 ST2 NFkB [8] [%] | % inhibition 1 nM Ab, HEK293 ST2 NFkB [8] [%] | % inhibition 10 nM Ab, HEK293 ST2 NFkB [8] [%] | other results
IL33-55 (antibody, human IgG1, kappa, V domains shown) VH: EVQLVESGGGLVQPGGSLRLSCAASGFTFSSYWMYWVRQAPGKGLEWVASITPNGGDTYYPDSVKGRFTISRDNAKNSLYLQMNSLRAEDTAVYYCARGHYYYTSYSLGYWGQGTLVTVSS VL: DIQMTQSPSSLSASVGDRVTITCKASQNINKHLDWYQQKPGKAPKLLIYFTNNLQTGVPSRFSGSGSGTDFTLTISSLQPEDFATYYCFQYNNGWTFGGGTKVEIKR |  |  |  |  |  |  |  | IC50, HEK293 ST2 NFkB (human IL-33 (mm2) [1]): 0.084 nM; IC50, HEK293 ST2 NFkB [2]: 0.19 nM
9B3 CDR graft (antibody, human IgG1, kappa, V domains shown) VH: EVQLVESGGGLVQPGGSLRLSCAASGFTFSNYWMYWVRQAPGKGLEWVASINNDGGNTYYLDSVKGRFTISRDNAKNSLYLQMNSLRAEDTAVYYCARGHYSYSSYSFSYWGQGTLVTVSS VL: DIQMTQSPSSLSASVGDRVTITCKASHNINKHLDWYQQKPGKAPKLLIYFTNNLQTGVPSRFSGSGSGTDFTLTISSLQPEDFATYYCFQYNSGWTFGGGTKVEIKR | 0.52 |  |  |  |  |  |  | 
IL33-56 (antibody, human IgG1, kappa, V domains shown) VH: EVQLVESGGGLVQPGGSLRLSCAASGFTFSSYWMYWVRQAPGKGLEWVASITPNGGETYYPDSVKGRFTISRDNAKNSLYLQMNSLRAEDTAVYYCARGHYYYTSYSLGYWGQGTLVTVSS VL: DIQMTQSPSSLSASVGDRVTITCKASQNINKHLDWYQQKPGKAPKLLIYFTNNLQTGVPSRFSGSGSGTDFTLTISSLQPEDFATYYCFQYNNGWTFGGGTKVEIKR |  |  |  |  |  |  |  | IC50, HEK293 ST2 NFkB (human IL-33 (mm2) [1]): 0.053 nM; IC50, HEK293 ST2 NFkB [2]: 0.104 nM
30B11 CDR graft (antibody, human IgG1, kappa, V domains shown) VH: EVQLVESGGGLVQPGGSLRLSCAASGFTFTDYWVSWVRQAPGKGLEWVAEIYPNSGADNFNENFKGRFTISRDNAKNSLYLQMNSLRAEDTAVYYCARGPYYYSTQIIFAYWGQGTLVTVSS VL: DIQMTQSPSSLSASVGDRVTITCKASQNVGNNLAWYQQKPGKAPKLLIYYASNRYTGVPSRFSGSGSGTDFTLTISSLQPEDFATYYCQRIYNSPPTFGGGTKVEIKR | 0.368 |  |  |  |  |  |  | 
30B11 CDR graft_R71V (antibody, human IgG1, kappa, V domains shown) VH: EVQLVESGGGLVQPGGSLRLSCAASGFTFTDYWVSWVRQAPGKGLEWVAEIYPNSGADNFNENFKGRFTISVDNAKNSLYLQMNSLRAEDTAVYYCARGPYYYSTQIIFAYWGQGTLVTVSS VL: DIQMTQSPSSLSASVGDRVTITCKASQNVGNNLAWYQQKPGKAPKLLIYYASNRYTGVPSRFSGSGSGTDFTLTISSLQPEDFATYYCQRIYNSPPTFGGGTKVEIKR | 0.278 |  |  |  |  |  |  | 
rat 30A1 (30A1 hybridoma) (antibody, V domains shown) VH: QVNLLQSGATLVKPGASMKMSCKASGYSFTDYWVSWVKQSHGKSLEWIGEIYPNSGANNFNKEFKDKATLTVDKSTSTAYMELTRLTSEDSAVYYCTRGPYYYSSQIIFAYWGQGTLVTVSS VL: IIVMTQSPKSMSISVGDRVTMNCKASQNVGNNIAWYRQKPGQSPELLIYYASNRYTGVPDRFTGGGYGTDFTLTINSVQAEDAAFYYCQRIYNSPPTFGGGTKVELK |  | 0.665 | 0.47 | 0.14 | 35.4 | 77.3 | 108 | IC50, HEK293 ST2 NFkB [5]: 2.95 nM
rat 30B11 (30B11 hybridoma) (antibody, V domains shown) VH: QVKLLQSGAALVKPGASVKMSCATSGFSFTDYWVSWVKQSHGKGLEWIGEIYPNSGADNFNENFKGKATLTVDKSTSTAYMELSRLTSEDSAIYYCTRGPYYYSTQIIFAYWGQGTLVTVSS VL: NIVMTQSPKSMSISVGDRVTMNCKASQNVGNNLAWYQQKPGQSPKLLIYYASNRYTGVPDRFTGGGYGTDFTLTINSVQAEDAAFYYCQRIYNSPPTFGGGTKVELR |  | 0.056 | 0.038 | 0.084 | 93.5 | 108 | 113 | IC50, HEK293 ST2 NFkB [5]: 0.2 nM
IL33-158-152 (antibody, human IgG1, kappa) heavy: EVQLVESGGGLVQPGGSLRLSCAASGFTFSSYWMYWVRQAPGKGLEWVAAITPNAGEDYYPESVKGRFTISRDNAKNSLYLQMNSLRAEDTAVYYCARGHYYYTSYSLGYWGQGTLVTVSSASTKGPSVFPLAPSSKSTSGGTAALGCLVKDYFPEPVTVSWNSGALTSGVHTFPAVLQSSGLYSLSSVVTVPSSSLGTQTYICNVNHKPSNTKVDKKVEPKSCDKTHTCPPCPAPEAAGAPSVFLFPPKPKDTLMISRTPEVTCVVVDVSHEDPEVKFNWYVDGVEVHNAKTKPREEQYNSTYRVVSVLTVLHQDWLNGKEYKCKVSNKALPAPIEKTISKAKGQPREPQVYTLPPSREEMTKNQVSLTCLVKGFYPSDIAVEWESNGQPENNYKTTPPVLDSDGSFFLYSKLTVDKSRWQQGNVFSCSVMHEALHNHYTQKSLSLSPG light: DIQMTQSPSSLSASVGDRVTITCKASQNINKHLDWYQQKPGKAPKLLIYFTNNLQTGVPSRFSGSGSGTDFTLTISSLQPEDFATYYCFQYNQGWTFGGGTKVEIKRTVAAPSVFIFPPSDEQLKSGTASVVCLLNNFYPREAKVQWKVDNALQSGNSQESVTEQDSKDSTYSLSSTLTLSKADYEKHKVYACEVTHQGLSSPVTKSFNRGEC |  |  |  |  |  |  |  | IC50, HEK293 ST2 NFkB (human IL-33 (mm2) [9]): 0.095 nM; IC50, HEK293 ST2 NFkB (human IL-33 WT (R&D)): 0.62 nM
IL33-167-153 (antibody, human IgG1, kappa) heavy: EVQLVESGGGLVQPGGSLRLSCAASGFTFSSYWMYWVRQAPGKGLEWVASITPNAGEDYYPDSVKGRFTISRDNAKNSLYLQMNSLRAEDTAVYYCARGHYYYTSYSLGYWGQGTLVTVSSASTKGPSVFPLAPSSKSTSGGTAALGCLVKDYFPEPVTVSWNSGALTSGVHTFPAVLQSSGLYSLSSVVTVPSSSLGTQTYICNVNHKPSNTKVDKKVEPKSCDKTHTCPPCPAPEAAGAPSVFLFPPKPKDTLMISRTPEVTCVVVDVSHEDPEVKFNWYVDGVEVHNAKTKPREEQYNSTYRVVSVLTVLHQDWLNGKEYKCKVSNKALPAPIEKTISKAKGQPREPQVYTLPPSREEMTKNQVSLTCLVKGFYPSDIAVEWESNGQPENNYKTTPPVLDSDGSFFLYSKLTVDKSRWQQGNVFSCSVMHEALHNHYTQKSLSLSPG light: DIQMTQSPSSLSASVGDRVTITCKASQNINKHLDWYQQKPGKAPKLLIYFTNNLQTGVPSRFSGSGSGTDFTLTISSLQPEDFATYYCFQYNNGWTFGGGTKVEIKRTVAAPSVFIFPPSDEQLKSGTASVVCLLNNFYPREAKVQWKVDNALQSGNSQESVTEQDSKDSTYSLSSTLTLSKADYEKHKVYACEVTHQGLSSPVTKSFNRGEC |  |  |  |  |  |  |  | IC50, HEK293 ST2 NFkB (human IL-33 (mm2) [9]): 0.129 nM; IC50, HEK293 ST2 NFkB (human IL-33 WT (R&D)): 0.749 nM
rat 7E8 (7E8 hybridoma) (antibody, V domains shown) VH: EVQLVETGGGLVQPGRSLKLSCKTSGFTFSSYWMYWIRQAPGKGLEWVSSITPNGGNTYYPDSVKGRFTISRDNAENTIYLQMSSLRSEDTATYFCAKGHYYYTSYSLGYWGQGSLVTVSS VL: EIQMTQSPSVLSASVGDRVTLSCKASQNINKHLDWYQQKLGEAPKLLIYFTNNLQTGIPSRFSGSGSGTDCTLTINSLQPGDVATYFCFQYNNGWTFGGGTKLELD | 0.024 | 0.018 | 0.043 | 0.032 | 112 | 110 | 113 | IC50, HEK293 ST2 NFkB [5]: 0.21 nM
rat 9B3 (9B3 hybridoma) (antibody, V domains shown) VH: EVQLVETGGGLVQPGRSLKLSCVASGFTFSNYWMYWIRQAPGMGLEWVSSINNDGGNTYYLDSVKGRFTISRNNAENTVYLQMNSLRSEDTATYYCAKGHYSYSSYSFSYWGQGTLVTVSS VL: DIQMTQSPSVLSASVGDRVTLSCKASHNINKHLDWCQQKVGEAPKLLIYFTNNLQTGIPSRFSGSGSGTDYTLTISSLQPEDVATYFCFQYNSGWTFGGGTKLELK |  | 0.076 | 0.17 | 2.72 | 55.1 | 99.2 | 108 | % inhibition at 20 nM, HEK293 ST2 NFkB [5]: 23%
